The values that follow come from patent US20180155451A1 (published 2018).

The target in assay [1] is T1, FcγRIIb extracellular domain with C-terminal His tag (human, UniProt P31994 43-217).
T1 construct: extracellular domain; also called FcgRIIb; 2b; not shown: His tag at the C terminus
T1 sequence (looked up): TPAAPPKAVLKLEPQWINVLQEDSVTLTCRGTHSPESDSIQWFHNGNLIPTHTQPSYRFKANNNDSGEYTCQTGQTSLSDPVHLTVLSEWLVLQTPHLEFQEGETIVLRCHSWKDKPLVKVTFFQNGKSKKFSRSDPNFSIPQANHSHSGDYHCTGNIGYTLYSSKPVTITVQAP
The assay is described as follows: SPR (Biacore), captured antibody, FcγR as analyte; relative to GpH7-A5/GpH7-B3/GpL16-k0 = 100. On the procedure:
(§1) Analysis of interaction between objective antibody and the FcγR was carried out using Biacore T100 (GE Healthcare). HBS-EP+ (GE Healthcare) was used as the running buffer, and the measurement temperature was set to 25° C. Chips produced by immobilizing the antigen peptide by the amine coupling method to a Series S Sencor Chip CM5 (GE Healthcare), or alternatively, chips produced by allowing preliminarily biotinylated antigen peptides to interact with and immobilize onto a Series S Sensor Chip SA (certified) (GE Healthcare) were used. Antibodies of interest were captured onto an antigen peptide-immobilized chip, and allowed to interact to each FcγR diluted with running buffer. To regenerate and repeatedly use the chip, the antibodies captured on the chip were washed off by reacting 10 mM glycine-HCl, pH 1.5.
(§2) The FcγR-binding activity of each antibody was assessed primarily using as an indicator the FcγR-binding activity and dissociation constant for FcγR.

In assay [2] the target is T2, FcγRIIIa extracellular domain with C-terminal His tag (human, UniProt P08637 17-208).
T2 construct: extracellular domain; also called FcgRIIIa; 3a; not shown: His tag at the C terminus
T2 sequence (P08637 17-208): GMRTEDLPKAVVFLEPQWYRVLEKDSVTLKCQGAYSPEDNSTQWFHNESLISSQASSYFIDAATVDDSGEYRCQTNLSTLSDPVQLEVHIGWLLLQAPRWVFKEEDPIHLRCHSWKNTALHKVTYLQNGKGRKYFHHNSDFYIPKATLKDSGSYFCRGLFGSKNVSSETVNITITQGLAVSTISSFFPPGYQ
Described as above. The method, then: as §1, §2

B1: GpH7-A5/GpH7-B3 variant P238_03V/GpL16-k0 (heterodimerized antibody, He Ab) (antibody, human IgG1, kappa)
heavy 1: not shown
heavy 2: not shown
light: DIVMTQSPLSLPVTPGEPASISCQASESLVHSNRNTYLHWYLQKPGQSPQLLIYKVSNRFSGVPDRFSGSGSGTDFTLKISRVEAEDVGVYYCSQNTHVPPTFGQGTKVEIERTVAAPSVFIFPPSDEQLKSGTASVVCLLNNFYPREAKVQWKVDNALQSGNSQESVTEQDSKDSTYSLSSTLTLSKADYEKHKVYACEVTHQGLSSPVTKSFNRGEC
notes: Anti-glypican-3 IgG1; the alteration is in the GpH7-B3 chain only; also called P238V
As to B1, the “He/Con_2b (IIb binding)” value in assay [1] was 120 % of HeCon Ab. The “He/Con_3a (IIIa binding)” value in assay [2] was 43.8 % of HeCon Ab.

B2: GpH7-A5/GpH7-B3 variant G237_10E/GpL16-k0 (heterodimerized antibody, He Ab) (antibody, human IgG1, kappa)
heavy 1: not shown
heavy 2: not shown
light: DIVMTQSPLSLPVTPGEPASISCQASESLVHSNRNTYLHWYLQKPGQSPQLLIYKVSNRFSGVPDRFSGSGSGTDFTLKISRVEAEDVGVYYCSQNTHVPPTFGQGTKVEIERTVAAPSVFIFPPSDEQLKSGTASVVCLLNNFYPREAKVQWKVDNALQSGNSQESVTEQDSKDSTYSLSSTLTLSKADYEKHKVYACEVTHQGLSSPVTKSFNRGEC
notes: Anti-glypican-3 IgG1; the alteration is in the GpH7-B3 chain only; also called G237E
As to B2, in assay [1], the “He/Con_2b (IIb binding)” value was 114 % of HeCon Ab. In addition, the “He/Con_3a (IIIa binding)” value in assay [2] was 25.4 % of HeCon Ab.

B3: GpH7-A5/GpH7-B3 variant G236_10E/GpL16-k0 (heterodimerized antibody, He Ab) (antibody, human IgG1, kappa)
heavy 1: not shown
heavy 2: not shown
light: DIVMTQSPLSLPVTPGEPASISCQASESLVHSNRNTYLHWYLQKPGQSPQLLIYKVSNRFSGVPDRFSGSGSGTDFTLKISRVEAEDVGVYYCSQNTHVPPTFGQGTKVEIERTVAAPSVFIFPPSDEQLKSGTASVVCLLNNFYPREAKVQWKVDNALQSGNSQESVTEQDSKDSTYSLSSTLTLSKADYEKHKVYACEVTHQGLSSPVTKSFNRGEC
notes: Anti-glypican-3 IgG1; the alteration is in the GpH7-B3 chain only; also called G236E
Take B3: the “He/Con_2b (IIb binding)” value in assay [1] is 110 % of HeCon Ab. In addition, the “He/Con_3a (IIIa binding)” value in assay [2] is 70.7 % of HeCon Ab.

B4: GpH7-A5/GpH7-B3 variant G237_18N/GpL16-k0 (heterodimerized antibody, He Ab) (antibody, human IgG1, kappa)
heavy 1: not shown
heavy 2: not shown
light: DIVMTQSPLSLPVTPGEPASISCQASESLVHSNRNTYLHWYLQKPGQSPQLLIYKVSNRFSGVPDRFSGSGSGTDFTLKISRVEAEDVGVYYCSQNTHVPPTFGQGTKVEIERTVAAPSVFIFPPSDEQLKSGTASVVCLLNNFYPREAKVQWKVDNALQSGNSQESVTEQDSKDSTYSLSSTLTLSKADYEKHKVYACEVTHQGLSSPVTKSFNRGEC
notes: Anti-glypican-3 IgG1; the alteration is in the GpH7-B3 chain only; also called G237N
For the molecule B4, the “He/Con_2b (IIb binding)” value in assay [1] is 180 % of HeCon Ab. For the same molecule, the “He/Con_3a (IIIa binding)” value in assay [2] was 20.3 % of HeCon Ab.

B5: GpH7-A5/GpH7-B3 variant G237_02A/GpL16-k0 (heterodimerized antibody, He Ab) (antibody, human IgG1, kappa)
heavy 1: not shown
heavy 2: not shown
light: DIVMTQSPLSLPVTPGEPASISCQASESLVHSNRNTYLHWYLQKPGQSPQLLIYKVSNRFSGVPDRFSGSGSGTDFTLKISRVEAEDVGVYYCSQNTHVPPTFGQGTKVEIERTVAAPSVFIFPPSDEQLKSGTASVVCLLNNFYPREAKVQWKVDNALQSGNSQESVTEQDSKDSTYSLSSTLTLSKADYEKHKVYACEVTHQGLSSPVTKSFNRGEC
notes: Anti-glypican-3 IgG1; the alteration is in the GpH7-B3 chain only; also called G237A
With B5, the “He/Con_2b (IIb binding)” value in assay [1] was 124 % of HeCon Ab. Also, in assay [2], the “He/Con_3a (IIIa binding)” value was 48.8 % of HeCon Ab.

B6: GpH7-A5/GpH7-B3 variant G237_09D/GpL16-k0 (heterodimerized antibody, He Ab) (antibody, human IgG1, kappa)
heavy 1: not shown
heavy 2: not shown
light: DIVMTQSPLSLPVTPGEPASISCQASESLVHSNRNTYLHWYLQKPGQSPQLLIYKVSNRFSGVPDRFSGSGSGTDFTLKISRVEAEDVGVYYCSQNTHVPPTFGQGTKVEIERTVAAPSVFIFPPSDEQLKSGTASVVCLLNNFYPREAKVQWKVDNALQSGNSQESVTEQDSKDSTYSLSSTLTLSKADYEKHKVYACEVTHQGLSSPVTKSFNRGEC
notes: Anti-glypican-3 IgG1; the alteration is in the GpH7-B3 chain only; also called G237D
In the case of B6, the “He/Con_2b (IIb binding)” value in assay [1] was 223 % of HeCon Ab. In assay [2], the “He/Con_3a (IIIa binding)” value is 17.7 % of HeCon Ab.

B7: GpH7-A5/GpH7-B3 variant G237_15Y/GpL16-k0 (heterodimerized antibody, He Ab) (antibody, human IgG1, kappa)
heavy 1: not shown
heavy 2: not shown
light: DIVMTQSPLSLPVTPGEPASISCQASESLVHSNRNTYLHWYLQKPGQSPQLLIYKVSNRFSGVPDRFSGSGSGTDFTLKISRVEAEDVGVYYCSQNTHVPPTFGQGTKVEIERTVAAPSVFIFPPSDEQLKSGTASVVCLLNNFYPREAKVQWKVDNALQSGNSQESVTEQDSKDSTYSLSSTLTLSKADYEKHKVYACEVTHQGLSSPVTKSFNRGEC
notes: Anti-glypican-3 IgG1; the alteration is in the GpH7-B3 chain only; also called G237Y
For the molecule B7, the “He/Con_2b (IIb binding)” value in assay [1] was 152 % of HeCon Ab. The “He/Con_3a (IIIa binding)” value in assay [2] is 22.1 % of HeCon Ab.

B8: GpH7-A5/GpH7-B3 variant G237_06M/GpL16-k0 (heterodimerized antibody, He Ab) (antibody, human IgG1, kappa)
heavy 1: not shown
heavy 2: not shown
light: DIVMTQSPLSLPVTPGEPASISCQASESLVHSNRNTYLHWYLQKPGQSPQLLIYKVSNRFSGVPDRFSGSGSGTDFTLKISRVEAEDVGVYYCSQNTHVPPTFGQGTKVEIERTVAAPSVFIFPPSDEQLKSGTASVVCLLNNFYPREAKVQWKVDNALQSGNSQESVTEQDSKDSTYSLSSTLTLSKADYEKHKVYACEVTHQGLSSPVTKSFNRGEC
notes: Anti-glypican-3 IgG1; the alteration is in the GpH7-B3 chain only; also called G237M
As for B8, the “He/Con_2b (IIb binding)” value in assay [1] was 130 % of HeCon Ab. For the same molecule, the “He/Con_3a (IIIa binding)” value in assay [2] was 31.9 % of HeCon Ab.
